Assay results from PMC8087782, “Developing Nanodisc-ID for label-free characterizations of membrane proteins” (Communications Biology, 2021).

Assays:
[1] = target: T1, MalFGK2 (Escherichia coli, UniProt P68187); conditions: APEX2-MSP1D1 nanodiscs; MalE and maltose
T1 construct: gene malK

[2] = target: vesicle (v-) SNAREs reconstituted in APEX2-MSP1D1 nanodiscs (UniProt P63045); assay: proximity labelling; nanodisc-ID: liposomes harboring t-SNAREs incubated with APEX2-MSP1D1 nanodiscs bearing v-SNAREs, with syt1-Ca2+; PL efficiency of t-SNAREs against v-SNARE nanodisc concentration; PBS, room temp; one-site fit; apparent
[3] = target: vesicle (v-) SNAREs reconstituted in APEX2-MSP1D1 nanodiscs (UniProt P63045); assay: proximity labelling; nanodisc-ID: liposomes harboring t-SNAREs incubated with APEX2-MSP1D1 nanodiscs bearing v-SNAREs, without syt1-Ca2+; PL efficiency of t-SNAREs against v-SNARE nanodisc concentration; PBS, room temp; one-site fit; apparent
[4] = target: vesicle (v-) SNAREs reconstituted in APEX2-MSP1D1 nanodiscs (UniProt P63045); assay: as above; remark: listed apart in the source

T1 sequence (P68187 whole entry): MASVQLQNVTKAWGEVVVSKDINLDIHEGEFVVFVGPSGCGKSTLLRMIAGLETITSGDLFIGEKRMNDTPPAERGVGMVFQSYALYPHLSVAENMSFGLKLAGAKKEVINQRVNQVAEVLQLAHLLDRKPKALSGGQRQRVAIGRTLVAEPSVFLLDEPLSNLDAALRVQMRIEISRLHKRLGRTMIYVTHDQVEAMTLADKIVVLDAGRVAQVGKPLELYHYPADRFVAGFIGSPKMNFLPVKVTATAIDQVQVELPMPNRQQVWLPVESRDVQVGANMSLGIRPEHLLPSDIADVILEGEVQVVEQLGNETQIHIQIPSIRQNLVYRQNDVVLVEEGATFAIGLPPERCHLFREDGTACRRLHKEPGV
T1 sequence (P02916 whole entry, further chain): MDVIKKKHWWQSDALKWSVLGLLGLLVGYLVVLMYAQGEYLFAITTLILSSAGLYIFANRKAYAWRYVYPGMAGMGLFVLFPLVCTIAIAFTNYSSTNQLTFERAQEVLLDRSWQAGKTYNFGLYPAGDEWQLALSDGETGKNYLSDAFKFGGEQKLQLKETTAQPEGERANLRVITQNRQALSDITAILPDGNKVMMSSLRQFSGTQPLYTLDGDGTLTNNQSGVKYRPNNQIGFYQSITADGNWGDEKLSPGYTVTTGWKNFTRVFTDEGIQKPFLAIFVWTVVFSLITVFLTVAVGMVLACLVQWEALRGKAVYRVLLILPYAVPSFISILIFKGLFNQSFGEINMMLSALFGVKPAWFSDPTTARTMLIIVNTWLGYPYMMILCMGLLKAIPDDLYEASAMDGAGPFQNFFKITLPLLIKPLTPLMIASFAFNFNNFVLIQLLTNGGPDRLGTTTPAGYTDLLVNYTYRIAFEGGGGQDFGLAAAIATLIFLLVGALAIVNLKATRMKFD
T1 sequence (P68183 whole entry, further chain): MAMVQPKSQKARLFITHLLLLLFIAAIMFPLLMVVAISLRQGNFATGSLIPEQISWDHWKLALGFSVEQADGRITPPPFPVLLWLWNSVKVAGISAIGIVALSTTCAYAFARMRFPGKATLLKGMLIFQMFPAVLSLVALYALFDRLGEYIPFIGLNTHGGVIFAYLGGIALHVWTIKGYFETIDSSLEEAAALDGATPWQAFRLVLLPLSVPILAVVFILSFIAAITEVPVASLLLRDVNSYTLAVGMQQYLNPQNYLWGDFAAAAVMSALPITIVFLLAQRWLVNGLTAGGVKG

| Kd [2] [nM] | Kd [3] [nM] | Kd [4] [nM] | Compound | photo-colorimetric ATPase assay [1] |
| --- | --- | --- | --- | --- |
| – | – | – | Nc1ncnc2c1ncn2[C@@H]1O[C@H](COP(=O)(O)OP(=O)(O)OP(=O)(O)O)[C@@H](O)[C@H]1O [ATP] | the ATPase activity of MalFGK2 was responding to the addition of MalE and maltose |
| 86 | 2600 | 2800 | target (t-) membrane SNAREs embedded in liposomes (complex) | – |
